In article PMC12087824:

Legend:
[1] = molecular target: human IL-2 receptor chain beta (IL-2Rβ, CD122) (human) (UniProt P14784)
[2] = molecular target: human IL-2 receptor chain beta (IL-2Rβ, CD122) (human) (UniProt P14784); assay: BLI; human IL-2Rβ immobilised; Neo-2/15 WT at 20–2.5 nM

human IL-2 receptor chain beta (IL-2Rβ, CD122) (human), sequence (P14784 27-551): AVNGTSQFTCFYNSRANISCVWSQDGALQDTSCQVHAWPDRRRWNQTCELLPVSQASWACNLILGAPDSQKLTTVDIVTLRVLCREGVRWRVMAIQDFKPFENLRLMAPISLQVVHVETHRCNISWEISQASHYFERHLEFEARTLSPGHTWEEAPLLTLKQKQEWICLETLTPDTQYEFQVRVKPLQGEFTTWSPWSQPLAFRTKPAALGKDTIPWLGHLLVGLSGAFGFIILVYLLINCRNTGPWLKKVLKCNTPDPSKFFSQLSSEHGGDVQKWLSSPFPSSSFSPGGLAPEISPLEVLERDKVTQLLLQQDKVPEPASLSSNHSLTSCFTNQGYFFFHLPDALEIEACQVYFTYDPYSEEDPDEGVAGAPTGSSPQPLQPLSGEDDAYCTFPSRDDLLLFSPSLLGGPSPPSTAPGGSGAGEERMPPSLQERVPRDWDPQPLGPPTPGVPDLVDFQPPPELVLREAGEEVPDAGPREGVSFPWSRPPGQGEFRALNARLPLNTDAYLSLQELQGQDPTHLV

EC50 of STAT5 phosphorylation (pSTAT5) in purified splenic T cells of balb-c mice, ex vivo, serial dilutions [1]: 4.1 pM | Kd [2]: 2.5 nM
Substance: neoleukin-2/15 (Neo-2/15) WT (designed binder)
